{"source": "patent US20240384326", "key": {"[1]": {"molecular_target": "APOBEC3A (E109A/E109Q as variously stated), no fusion E109A (Homo sapiens) (UniProt P31941)", "sequence (P31941 whole entry E109A, the tested form may be a part)": "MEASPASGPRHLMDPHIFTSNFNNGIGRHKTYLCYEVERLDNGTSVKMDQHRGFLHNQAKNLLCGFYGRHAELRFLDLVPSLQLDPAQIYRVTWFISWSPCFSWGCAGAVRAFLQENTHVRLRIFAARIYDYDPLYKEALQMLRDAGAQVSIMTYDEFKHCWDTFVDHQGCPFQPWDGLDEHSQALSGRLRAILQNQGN", "assay": "cleavage_in_vitro", "conditions": "USER assay, 10 mM MgCl2, pH 7, 37C"}, "anti-m6A antibody Ab02": {"system": "anti-m6A antibody Ab02", "assay": "ELONA"}, "[2]": {"system": "Ab05 randomly labeled with DNA adapter (HyNic)", "assay": "ELONA", "conditions": "m6A at position 9; random HyNic labeling"}, "anti-m6A antibody Ab01": {"system": "anti-m6A antibody Ab01", "assay": "ELONA"}, "anti-m6A antibody Ab05": {"system": "anti-m6A antibody Ab05", "assay": "ELONA"}, "anti-m5C antibody Ab16": {"system": "anti-m5C antibody Ab16", "assay": "ELONA"}, "[3]": {"system": "anti-inosine antibody Ab10", "assay": "ELONA"}, "[4]": {"system": "anti-pseudouridine antibody Ab19", "assay": "ELONA", "conditions": "unmodified control"}, "[5]": {"system": "anti-pseudouridine antibody Ab11", "assay": "ELONA", "conditions": "unmodified control"}, "[6]": {"conditions": "m6A at position 9, plate ELISA, avidity, stated only as subnanomolar"}}}
{"substance": "FAM-DNA oligonucleotide with a single central C", "values": [{"measurement": "activity (fold vs APOBEC1)", "setting": "[1]", "value": "> 10"}]}
{"substance": "NNNNNNNNANNNNNNNN [m6A degenerate RNA (SEQ ID NO: 1)]", "values": [{"measurement": "Kd", "setting": "anti-m6A antibody Ab02; [6]", "value": "< 1", "unit": "nM"}, {"measurement": "binding signal (fold loss of KD vs unlabeled Ab05)", "setting": "[2]", "value": "> 15"}, {"measurement": "Kd", "setting": "anti-m6A antibody Ab01; m6A at position 9, plate ELISA, immobilised RNA, avidity, stated only as subnanomolar, 22C", "value": "< 1", "unit": "nM"}, {"measurement": "Kd", "setting": "anti-m6A antibody Ab05; [6]", "value": "< 1", "unit": "nM"}]}
{"substance": "NNNNNNNNCNNNNNNNN [m5C degenerate RNA (SEQ ID NO: 4)]", "values": [{"measurement": "Kd", "setting": "anti-m5C antibody Ab16; m5C at position 9, plate ELISA, avidity, stated only as subnanomolar", "value": "< 1", "unit": "nM"}]}
{"substance": "NNNNNNNNINNNNNNNN [inosine degenerate RNA (SEQ ID NO: 2 in Table 4)]", "values": [{"measurement": "Kd", "setting": "[3]; inosine at position 9, plate ELISA, avidity, stated only as subnanomolar", "value": "< 1", "unit": "nM"}]}
{"substance": "NNNNNNNNNNNNNNNN [unmodified degenerate reference RNA (SEQ ID NO: 5)]", "values": [{"measurement": "binding signal (fold weaker than cognate)", "setting": "anti-m6A antibody Ab02; unmodified control", "value": "> 100"}, {"measurement": "binding signal (fold weaker than cognate)", "setting": "[3]; unmodified control", "value": "> 100"}, {"measurement": "binding signal (fold weaker than cognate)", "setting": "[4]", "value": 10}, {"measurement": "binding signal (fold weaker than cognate)", "setting": "[5]", "value": 10}, {"measurement": "binding signal (fold weaker than cognate)", "setting": "anti-m6A antibody Ab01; unmodified control", "value": "> 100"}, {"measurement": "binding signal (fold weaker than cognate)", "setting": "anti-m6A antibody Ab05; unmodified control", "value": "> 100"}, {"measurement": "binding signal (fold weaker than cognate)", "setting": "anti-m5C antibody Ab16; unmodified control", "value": "> 100"}]}
